Reference: paper PMC3696004

Columns and labels:
[1] = biological target: HAFib3 (Fib3 prey fragment with an N-terminal hemagglutinin tag) (human) (UniProt Q12805); test: ELISA; HAFib3 (250 ng/ml) captured on plate-bound anti-HA antibody; a range of concentrations of CFH678 (H or Y) in PBS, overnight at 4°C; detected with goat anti-CFH and HRP secondary antibody at 450 nm; background without HAFib3 subtracted, 8 replicates; one-site specific binding fit (GraphPad Prism)
[2] = biological target: CFH SCR7 bait, 402H variant (human); test: two-hybrid; quantitative βGal assay in selective liquid culture with CPRG substrate, Miller Units; five independent yeast clones for each bait
Chain of CFH SCR7 bait, 402H variant (human) (P08603 19-1231, change not shown): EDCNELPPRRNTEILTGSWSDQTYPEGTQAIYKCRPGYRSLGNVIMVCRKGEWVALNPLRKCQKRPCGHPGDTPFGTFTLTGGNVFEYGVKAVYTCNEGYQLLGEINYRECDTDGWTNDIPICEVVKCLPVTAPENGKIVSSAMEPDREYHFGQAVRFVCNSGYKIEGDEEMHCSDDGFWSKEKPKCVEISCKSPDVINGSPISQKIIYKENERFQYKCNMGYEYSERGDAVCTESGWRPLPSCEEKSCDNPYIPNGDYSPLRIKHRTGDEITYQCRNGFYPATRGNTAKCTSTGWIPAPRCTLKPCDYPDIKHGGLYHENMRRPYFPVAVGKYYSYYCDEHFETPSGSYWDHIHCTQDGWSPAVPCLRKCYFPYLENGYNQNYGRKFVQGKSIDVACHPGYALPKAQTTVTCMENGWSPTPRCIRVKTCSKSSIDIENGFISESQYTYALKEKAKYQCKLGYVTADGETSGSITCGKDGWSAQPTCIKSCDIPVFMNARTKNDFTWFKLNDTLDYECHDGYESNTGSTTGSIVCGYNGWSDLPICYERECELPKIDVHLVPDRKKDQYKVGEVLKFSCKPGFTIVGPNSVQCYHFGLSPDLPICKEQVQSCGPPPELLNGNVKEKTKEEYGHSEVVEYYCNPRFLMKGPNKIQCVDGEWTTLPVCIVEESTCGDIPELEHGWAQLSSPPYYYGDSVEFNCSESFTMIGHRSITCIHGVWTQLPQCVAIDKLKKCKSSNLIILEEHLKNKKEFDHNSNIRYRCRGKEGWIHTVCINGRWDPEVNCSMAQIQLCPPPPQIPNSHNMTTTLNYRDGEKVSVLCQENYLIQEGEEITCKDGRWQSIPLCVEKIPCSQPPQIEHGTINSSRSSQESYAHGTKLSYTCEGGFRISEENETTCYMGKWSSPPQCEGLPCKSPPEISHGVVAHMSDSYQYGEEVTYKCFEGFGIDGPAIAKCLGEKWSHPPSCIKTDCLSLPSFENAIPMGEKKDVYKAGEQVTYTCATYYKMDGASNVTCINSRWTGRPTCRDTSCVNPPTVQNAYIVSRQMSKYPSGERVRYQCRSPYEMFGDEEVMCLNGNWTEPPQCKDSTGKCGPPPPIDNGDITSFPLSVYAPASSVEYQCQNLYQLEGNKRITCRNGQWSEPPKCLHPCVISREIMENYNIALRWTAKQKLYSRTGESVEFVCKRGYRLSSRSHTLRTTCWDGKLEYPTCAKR

| Molecule | Kd [1] | higher βGal activation than with CFH-Y [2] |
| --- | --- | --- |
| Recombinant CFH domains 6-8, 402H variant (CFH678-H) (domain or fragment) | 134 nM |  |
| Recombinant CFH domains 6-8, 402Y variant (CFH678-Y) (domain or fragment) | 197 nM |  |
| Fib3 prey fusion protein from the Y2H screen (EFEMP1/Fibulin 3 residues 289-493) (domain or fragment) RLNCEDIDECRTSSYLCQYQCVNEPGKFSCMCPQGYQVVRSRTCQDINECETTNECREDEMCWNYHGGFRCYPRNPCQDPYILTPENRCVCPVSNAMCRELPQSIVYKYMSIRSDRSVPSDIFQIQATTIYANTINTFRIKSGNENGEFYLRQTSPVSAMLVLVKSLSGPREHIVDLEMLTVSSIGTFRTSSVLRLTIIVGPFSF |  | 60% |
